Measurements: PMC6062542, “Structural and Biochemical Characterization of AaL, a Quorum Quenching Lactonase with Unusual Kinetic Properties” (Scientific Reports, 2018)

T1: AaL (Alicyclobacillus acidoterrestris, UniProt T0BMH6)
T1 construct: gene K1I37_05175; codon-optimized synthetic gene; N-terminal Strep tag (WSHPQFEK) + TEV site (ENLYFQS), tag cleaved with TEV; homodimer
T1 sequence (T0BMH6 1-282): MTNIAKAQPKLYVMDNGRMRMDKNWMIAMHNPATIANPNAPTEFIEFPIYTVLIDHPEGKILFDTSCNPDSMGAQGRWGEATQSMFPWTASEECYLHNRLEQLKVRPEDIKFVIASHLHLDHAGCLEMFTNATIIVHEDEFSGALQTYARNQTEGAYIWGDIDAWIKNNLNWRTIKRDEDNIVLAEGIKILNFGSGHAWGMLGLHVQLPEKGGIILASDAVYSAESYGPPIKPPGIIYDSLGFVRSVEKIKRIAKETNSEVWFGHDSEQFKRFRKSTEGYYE

B1: AaL (Alicyclobacillus acidoterrestris ATCC 49025) (protein)
chain: MTNIAKAQPKLYVMDNGRMRMDKNWMIAMHNPATIANPNAPTEFIEFPIYTVLIDHPEGKILFDTSCNPDSMGAQGRWGEATQSMFPWTASEECYLHNRLEQLKVRPEDIKFVIASHLHLDHAGCLEMFTNATIIVHEDEFSGALQTYARNQTEGAYIWGDIDAWIKNNLNWRTIKRDEDNIVLAEGIKILNFGSGHAWGMLGLHVQLPEKGGIILASDAVYSAESYGPPIKPPGIIYDSLGFVRSVEKIKRIAKETNSEVWFGHDSEQFKRFRKSTEGYYE
notes: codon-optimized synthetic gene; N-terminal Strep tag (WSHPQFEK) + TEV site (ENLYFQS), tag cleaved with TEV; homodimer

Assays:
AaL = molecular target: T1, AaL; assay: X-ray crystal structure, […] Å, crystal soak; format: binding; settings: soaked 10 min with 20 mM C6-AHL; active site, two cobalt cations; modelled occupancy 0.7
purified protein [1] = substrate: CCCC1CCC(=O)O1; assay: purified protein; format: biochemical, Alicyclobacillus acidoterrestris; settings: 2.5 mM Bicine pH 8.3, 150 mM NaCl, 0.2 mM cresol purple, 0.5% DMSO, 0.2 mM CoCl2, room temperature
purified protein [2] = substrate: O=C1CCCCO1; assay: purified protein; format: biochemical, Alicyclobacillus acidoterrestris; settings: 2.5 mM Bicine pH 8.3, 150 mM NaCl, 0.2 mM cresol purple, 0.5% DMSO, 0.2 mM CoCl2, room temperature
purified protein [3] = substrate: O=C1CCCO1; assay: purified protein; format: biochemical, Alicyclobacillus acidoterrestris; settings: 2.5 mM Bicine pH 8.3, 150 mM NaCl, 0.2 mM cresol purple, 0.5% DMSO, 0.2 mM CoCl2, room temperature
purified protein [4] = substrate: CCCCCC1CCCC(=O)O1; assay: purified protein; format: biochemical, Alicyclobacillus acidoterrestris; settings: 2.5 mM Bicine pH 8.3, 150 mM NaCl, 0.2 mM cresol purple, 0.5% DMSO, 0.2 mM CoCl2, room temperature

Molecule	X-ray crystal structure, 1.8 Å, crystal soak (AaL)	Km (purified protein [1]) [µM]	Km (purified protein [2]) [µM]	kcat (purified protein [2]) [s⁻¹]	kcat/Km (purified protein [2]) [M⁻¹ s⁻¹]	Km (purified protein [3]) [µM]	kcat (purified protein [3]) [s⁻¹]	kcat/Km (purified protein [3]) [M⁻¹ s⁻¹]	Km (purified protein [4]) [µM]	kcat (purified protein [4]) [s⁻¹]	kcat/Km (purified protein [4]) [M⁻¹ s⁻¹]
CCCCCC(=O)N[C@H]1CCOC1=O [C6-AHL]	the structure of AaL bound to C6-AHL could be solved										
B1		36.9 ± 8.9	18.7 ± 0.4	8.4 ± 0.4	450000 ± 90000	171.0 ± 36.1	23.5 ± 1.7	140000 ± 30000	18.5 ± 0.4	8.4 ± 0.6	450000 ± 100000
